Assay results: publication doi:10.1101/689042v1

Assays:
purified protein [1] = substrate: OC[C@@H](O)[C@H](O)[C@H](O)[C@@H](O)CO; test: purified protein; format: biochemical, Sinorhizobium meliloti; conditions: 1.5 mM NAD+, 20 mM CAPS pH 11
purified protein [2] = substrate: OC[C@@H](O)[C@@H](O)[C@H](O)[C@@H](O)CO; test: purified protein; format: biochemical, Sinorhizobium meliloti; conditions: 1.5 mM NAD+, 20 mM CAPS pH 11

B1: SmoS (SmSmoS) (Sinorhizobium meliloti 1021) (protein)
chain: MKRLEGKSALITGSARGIGRAFAEAYVREGATVAIADIDIERARQAAAEIGPAAYAVQMDVTRQDSIDAAIAATVEHAGGLDILVNNAALFDLAPIVEITRESYEKLFAINVAGTLFTLQAAARQMIAQGRGGKIINMASQAGRRGEALVAIYCATKAAVISLTQSAGLDLIKHRINVNAIAPGVVDGEHWDGVDALFARYENRPRGEKKRLVGEAVPFGRMGTAEDLTGMAIFLASAESDYIVSQTYNVDGGNWMS
Km (purified protein [1]): 1200 µM
kcat (purified protein [1]): 3227.1 s⁻¹
Km (purified protein [2]): 2500 µM
kcat (purified protein [2]): 25625.6 s⁻¹
